The RNAGym collection of RNA variant scans (doi:10.7554/elife.80360)

B1: HDV Ribozyme (parent)
chain: GGCCGGCAUGGUCCCAGCCUCCUCGCUGGCGCCGGCUGGGCAACAUUCCGAGGGGACCGUCCCCUCGGUAAUGGCGAAUGGGACCCA

Variants of: B1
Assay: self-cleavage, relative activity (ratio to wild type); higher = more cleavage; co-transcriptional

First: G2A A42C
Second: G2C G68A
The self-cleavage of the first is lower: 0.0432 for the first, 0.0504 for the second.

First: C36G G53U
Second: A8C A78U
The self-cleavage of the first is higher: 0.148 for the first, 0.119 for the second.

Going from C13U G76U to G6C A43C, the self-cleavage falls from 0.813 to 0.0519.

Going from G59U G68C to G5C C86A, the self-cleavage falls from 0.973 to 0.166.

Compared with G5A C18A, G31A C57U is higher in self-cleavage: 0.0875 for the first, 0.421 for the second.

First: C58A C61A
Second: C14U G53U
The self-cleavage of the first is higher: 1.23 for the first, 1.16 for the second.

Compared with C21A U23G, G5C G50C is higher in self-cleavage: 0.125 for the first, 0.151 for the second.

First: C63G A83G
Second: C36U
The self-cleavage of the first is lower: 0.519 for the first, 0.744 for the second.

First: G17C C48G
Second: U46G G55C
The self-cleavage of the first is lower: 0.252 for the first, 0.98 for the second.

Going from G2C A70U to U23A G82A, the self-cleavage rises from 0.0601 to 0.266.

Compared with C49G A56G, C49U A70C is lower in self-cleavage: 0.917 for the first, 0.782 for the second.

Compared with C30U G53U, G76A A87G is higher in self-cleavage: 0.697 for the first, 1.01 for the second.

Going from C58A G73C to G11U U72A, the self-cleavage falls from 0.68 to 0.287.

First: U9C G17A
Second: U46G G52C
The self-cleavage of the first is higher: 1.08 for the first, 0.429 for the second.

Going from A8C C75A to A43C G55U, the self-cleavage rises from 0.128 to 0.748.

Compared with G39U C85A, C21U G25U is lower in self-cleavage: 0.609 for the first, 0.0811 for the second.

Compared with A51U G73U, C61G C66G is higher in self-cleavage: 0.504 for the first, 0.745 for the second.

Going from G52A G80C to G54A C86U, the self-cleavage rises from 0.272 to 0.992.

Compared with A70U G81U, A8U C61G is higher in self-cleavage: 0.469 for the first, 0.623 for the second.

Going from U79C to C24A G40C, the self-cleavage falls from 0.438 to 0.117.

Compared with C4A C7U, G25U A42C is higher in self-cleavage: 0.0519 for the first, 0.135 for the second.

First: A83C C85G
Second: A16G C33G
The self-cleavage of the first is lower: 0.175 for the first, 0.19 for the second.

Compared with C48A G67U, A70U A83C is lower in self-cleavage: 1.03 for the first, 0.458 for the second.

Compared with A45C C64U, G50A G82U is lower in self-cleavage: 0.73 for the first, 0.364 for the second.

First: U12G G25C
Second: A43C C75U
The self-cleavage of the first is lower: 0.119 for the first, 0.172 for the second.

Compared with C7G U72G, G50C C86G is higher in self-cleavage: 0 for the first, 0.944 for the second.

Compared with C19U C75A, U37A C66G is higher in self-cleavage: 0.0665 for the first, 0.158 for the second.

Compared with C48A C61G, C32A A56C is lower in self-cleavage: 1.03 for the first, 0.293 for the second.

First: U20G C84U
Second: G6A U20C
The self-cleavage of the first is higher: 0.185 for the first, 0.158 for the second.

Going from C36U A83C to C62G U72G, the self-cleavage rises from 0.185 to 0.277.

Compared with C33U G74A, C15A C30A is higher in self-cleavage: 0.277 for the first, 0.326 for the second.

First: A8G
Second: C21U C84A
The self-cleavage of the first is higher: 1.02 for the first, 0.0755 for the second.

Going from C32G G50A to U60G G68C, the self-cleavage rises from 0.157 to 0.965.

Compared with A56G A70U, U12C C24A is lower in self-cleavage: 1.1 for the first, 0.232 for the second.

Going from C13A U46A to G25C C49U, the self-cleavage rises from 0.0346 to 0.222.

First: C4A A70C
Second: U12C C75G
The self-cleavage of the first is lower: 0.136 for the first, 0.166 for the second.

Compared with G29A A78G, C15U C57U is higher in self-cleavage: 0.0804 for the first, 0.864 for the second.

Compared with C22G C48G, G34A A77G is higher in self-cleavage: 0.0489 for the first, 0.0639 for the second.

First: G5U C18U
Second: C3A A77U
The self-cleavage of the first is lower: 0.0504 for the first, 0.224 for the second.

First: G73C U79C
Second: G34A U79A
The self-cleavage of the first is higher: 0.161 for the first, 0.0755 for the second.

Compared with C7G C24A, C19U G40C is lower in self-cleavage: 0.208 for the first, 0.0923 for the second.

Going from C4A A56G to A8U C63A, the self-cleavage rises from 0.217 to 0.415.

First: C21A U72C
Second: C61U C85A
The self-cleavage of the first is lower: 0.101 for the first, 1.07 for the second.

First: G1U C86U
Second: G55U C62G
The self-cleavage of the first is lower: 0.212 for the first, 0.793 for the second.

Going from C19U U79C to C18A, the self-cleavage rises from 0.0415 to 0.145.

Compared with A56C C75G, U23A C85A is higher in self-cleavage: 0.115 for the first, 0.68 for the second.

Compared with C41G C48A, G31U A51G is lower in self-cleavage: 1.12 for the first, 0.369 for the second.

Going from C3U G54A to U20G G81U, the self-cleavage falls from 0.633 to 0.

Going from G1U U23G to G11U C84A, the self-cleavage rises from 0.277 to 1.12.

Compared with C7G U72A, A43U C44U is higher in self-cleavage: 0.0755 for the first, 1.07 for the second.

Compared with C26G G68C, U23A C36A is lower in self-cleavage: 1.07 for the first, 0.177 for the second.

First: U27A G52C
Second: G38A G55U
The self-cleavage of the first is higher: 0.914 for the first, 0.19 for the second.

Going from C3A C61U to G31U G80A, the self-cleavage falls from 0.554 to 0.0519.

Going from C75G A83U to C41G A45G, the self-cleavage rises from 0.201 to 1.01.

Going from C22U U65G to G1C C36A, the self-cleavage falls from 0.845 to 0.151.

First: G1A C61G
Second: A51G A70C
The self-cleavage of the first is lower: 0.0831 for the first, 0.974 for the second.

First: C22U C48A
Second: G53C
The self-cleavage of the first is lower: 0.815 for the first, 0.97 for the second.

First: U65G C86G
Second: U47C C49U
The self-cleavage of the first is lower: 0.752 for the first, 0.864 for the second.

First: U27C G59A
Second: C24G A51U
The self-cleavage of the first is higher: 0.742 for the first, 0.237 for the second.

Going from C4A C84G to G55A A77U, the self-cleavage rises from 0.138 to 0.694.

Going from U12G C19A to G38A A87C, the self-cleavage falls from 0.161 to 0.0881.

First: G10A A16C
Second: A70G C86A
The self-cleavage of the first is higher: 0.867 for the first, 0.743 for the second.

First: A16U U27A
Second: G2U A16C
The self-cleavage of the first is higher: 0.697 for the first, 0 for the second.

First: C22U A70U
Second: C18U G50A
The self-cleavage of the first is lower: 0.587 for the first, 0.852 for the second.

Compared with C13G U60A, U20A C33G is lower in self-cleavage: 0.237 for the first, 0.151 for the second.

Going from G35U C44G to C24A A56G, the self-cleavage rises from 0.0755 to 0.404.

First: U27G C58G
Second: G39C C58G
The self-cleavage of the first is higher: 0.95 for the first, 0.277 for the second.

Compared with U9G A51G, G25C G74A is lower in self-cleavage: 0.95 for the first, 0.0639 for the second.

First: C22A A83G
Second: C62A C66A
The self-cleavage of the first is lower: 0.14 for the first, 0.32 for the second.

Going from G28C C85A to G29A G54C, the self-cleavage rises from 0.0475 to 0.113.

Going from C22U C26U to C62U C63U, the self-cleavage rises from 0.847 to 1.11.

Compared with C33U A43C, U12G C62U is higher in self-cleavage: 0.248 for the first, 0.755 for the second.

Compared with A8C G29A, C30U A71U is higher in self-cleavage: 0.18 for the first, 0.372 for the second.

Going from U47A U69C to G10A C49U, the self-cleavage rises from 0.764 to 0.831.

Compared with G50A C58A, U27C C86U is lower in self-cleavage: 1.12 for the first, 0.745 for the second.

Compared with U27A U47G, C26G C30A is lower in self-cleavage: 0.89 for the first, 0.623 for the second.

Compared with U47C G59A, G35A U79A is lower in self-cleavage: 0.954 for the first, 0.47 for the second.

Compared with G35C C49G, G29C G54A is higher in self-cleavage: 0.0449 for the first, 0.0773 for the second.

Compared with G25A A87C, C13G C75U is lower in self-cleavage: 0.183 for the first, 0.0594 for the second.

Compared with C14U A71G, G39A A83G is lower in self-cleavage: 0.883 for the first, 0.507 for the second.

Going from C7U U23C to G40U G74A, the self-cleavage falls from 0.516 to 0.415.

Compared with G25A A70G, C30A C86G is higher in self-cleavage: 0.0791 for the first, 0.475 for the second.

Compared with U9A U27G, A8U C75A is lower in self-cleavage: 1.13 for the first, 0 for the second.

C44A U47C showed a self-cleavage of 0.831.
